“Also recorded” adds a separate entry of the source.
How the values were obtained:
VAP-1 [1] = molecular target: T1, VAP-1 (Homo sapiens, UniProt Q16853); conditions: computer docking simulations, literature; cited from earlier work
T1 sequence (Q16853 1-763): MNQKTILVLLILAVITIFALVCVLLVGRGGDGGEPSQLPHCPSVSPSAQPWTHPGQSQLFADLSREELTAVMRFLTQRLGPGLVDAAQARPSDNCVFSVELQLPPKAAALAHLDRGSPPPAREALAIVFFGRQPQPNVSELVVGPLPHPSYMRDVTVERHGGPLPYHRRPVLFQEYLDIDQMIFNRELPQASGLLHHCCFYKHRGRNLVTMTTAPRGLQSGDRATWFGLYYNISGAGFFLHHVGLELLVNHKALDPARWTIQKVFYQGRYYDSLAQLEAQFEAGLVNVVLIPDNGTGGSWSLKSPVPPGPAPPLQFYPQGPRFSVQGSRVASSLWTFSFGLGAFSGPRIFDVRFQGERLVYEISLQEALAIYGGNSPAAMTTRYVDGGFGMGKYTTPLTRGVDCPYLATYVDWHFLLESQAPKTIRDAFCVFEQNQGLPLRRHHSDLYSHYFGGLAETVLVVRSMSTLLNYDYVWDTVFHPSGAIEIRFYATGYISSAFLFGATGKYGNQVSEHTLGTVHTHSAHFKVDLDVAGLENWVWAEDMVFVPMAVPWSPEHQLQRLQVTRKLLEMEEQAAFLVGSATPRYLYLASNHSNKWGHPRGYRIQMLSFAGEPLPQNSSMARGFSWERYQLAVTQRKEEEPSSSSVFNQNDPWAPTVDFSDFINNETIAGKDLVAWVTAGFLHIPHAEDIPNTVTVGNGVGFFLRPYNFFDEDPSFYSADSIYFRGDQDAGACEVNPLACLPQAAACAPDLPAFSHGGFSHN

VAP-1 [2] = molecular target: T1, VAP-1; experiment: Fluorometric detection of SSAO-mediated H2O2 formation (Amplex Red) with VAP-1 transfected CHO cells; type: biochemical; set-up: The CHO cells stably transfected with the cDNA encoding VAP-1 was used; expressed in transfected cells; host or cells: CHO cells, stably transfected; conditions: for inhibition of the activity (VAP-1 SSAO): methylamine substrate
Protocol: Cells. The CHO cells stably transfected with the cDNA encoding VAP-1 was used. The VAP-1 expression level of these cells was confirmed by staining with anti-VAP-1 monoclonal antibodies and subsequent flow cytometric analyses. The VAP-1 transfectants were grown into the confluence, detached, counted and equal numbers were divided to 96 well plates for enzymatic assays.
Fluorometric detection of SSAO-mediated H2O2 formation. Amine oxidase activities were measured using a highly sensitive and stable probe for H2O2 Amplex Red reagent (Molecular Probes Europe BV) as described previously (Salmi et al., 2001). The enzymes were incubated in white microplates in the final volume of 200 μl KRPG containing various concentrations of the tested peptides, 0.8 U/ml horseradish peroxidase, 60 μM Amplex Red reagent, and methylamine as preferred amine substrate for SSAO. Fluorescence intensity of the samples was measured using Tecan ULTRA fluoropolarometer (excitation/emission wavelengths 545/595 nm). To evaluate the amount of H2O2 formed via SSAO-mediated reaction, specific enzyme inhibitor semicarbazide (200 μM) was included in the control well, and these values were subtracted from the total amount of H2O2 formed. To test whether the peptides could interfere with fluorometric H2O2 detection, H2O2 concentrations were calculated from calibration curves generated by serial dilutions of standard H2O2 in the presence of various concentrations of peptides. All calibration curves show linear dependence of the measured fluorescence intensity vs. H2O2 concentration in the presence of peptides in concentrations less than 250 micrograms/ml.

[3] = peptide concentration 10 micrograms/ml
[4] = peptide concentration 100 micrograms/ml

| Substance | binding to the active site of VAP-1 in docking (VAP-1 [1]) | inhibition of the activity (VAP-1 SSAO) (VAP-1 [2]; [3]) [%] | inhibition of the activity (VAP-1 SSAO) (VAP-1 [2]; [4]) [%] | VAP-1 inhibiting activity compared with earlier lysine containing peptides (VAP-1 [2]; comparison in words) |
| --- | --- | --- | --- | --- |
| GGGGKGGGG (VAP-1 targeting peptide) | bind optimally | 17.4 | 20.3 |  |
| GGGGKYGGG (VAP-1 targeting peptide) |  | 33.5 | 42.8 | stronger than that of the previously disclosed lysine containing peptides; also recorded: more potent inhibitor of VAP-1 than GGGGKGGGG |
| GGGKEGG (VAP-1 targeting peptide) [previously disclosed lysine containing peptide] | bind optimally |  |  |  |
| GGGKGGG (VAP-1 targeting peptide) [previously disclosed lysine containing peptide] | bind optimally |  |  |  |
| GGGKKGG (VAP-1 targeting peptide) [previously disclosed lysine containing peptide] | bind optimally |  |  |  |

From patent US20080213176A1, “Compositions for Targeting Amine Oxidases in Vivo” (priority 2005, published 2008)
